Laboratory results reported in US20160194388A1 (WASHINGTON UNIVERSITY, published 2016).

How the values were obtained:
[1] = target: T1, human 14-3-3 epsilon isoform 1 (human, UniProt P62258 1-255); test: FMAT on H23 cells, hybridoma supernatant
T1 construct: Endogenous protein of H23 human lung cancer cells; Mass spectrometry of the about 27 kDa band identified it as 14-3-3 epsilon, 255 amino acids; also called 14-3-3 protein epsilon; YWHAE
T1 sequence: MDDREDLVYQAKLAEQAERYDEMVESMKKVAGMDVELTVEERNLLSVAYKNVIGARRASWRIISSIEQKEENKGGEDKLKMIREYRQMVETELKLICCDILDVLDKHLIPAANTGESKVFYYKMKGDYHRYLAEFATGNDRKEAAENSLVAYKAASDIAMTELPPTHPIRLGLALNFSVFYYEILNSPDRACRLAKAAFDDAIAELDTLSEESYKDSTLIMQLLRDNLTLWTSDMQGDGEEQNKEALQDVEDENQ

[2] = target: T1, human 14-3-3 epsilon isoform 1; test: flow cytometry on H23 cells
Experimental: H23 cells were treated with radiation, 3Gy×3 or 0Gy sham. Cells were then treated with blocking buffer followed by the addition of the 7D4 anti-14-3-3 epsilon monoclonal antibody. Cells were then washed and stained with the secondary antibody conjugated to the fluorescent marker Alexa Fluor 488. Commercial rabbit anti-human 14-3-3 epsilon antibody was used as positive control. Negative controls included 7D4 without secondary antibody and normal mouse IgG with secondary antibody. Shown in FIG. 5 is the percentage of cells staining positive with the anti-14-3-3 antibodies as measured by flow cytometry (FACS).

[3] = target: T2, peptide comprising amino acids 177-194 of 14-3-3 epsilon isoform 1 (human); test: ELISA, peptide coated, 7D4 at 5 µg/ml
T2 construct: Synthetic 18-mer (Sigma), coated on the ELISA plate
T2 peptide: FSVFYYEILNSPDRACRL
Experimental: (§1) Two batches of purified anti 14-3-3 epsilon monoclonal antibody 7D4 were used for testing all 31 peptides by ELISA. Three concentrations of each peptide had been used for coating ELISA plate at 30, 15, 10 μg/mL, 50 μl/each well were reacted against diluted purified antibodies at same concentration in all assay. Similar results were obtained for each peptide concentration coated on the ELISA plate.
(§2) Human 14-3-3 Protein epsilon and its isoform SV whole amino acid sequences were obtained through UniProtKB/Swiss-Prot. The Taxonomic identifier 9606 (NCBI) organism is Homosapiens (Human), Gene name is YWHAE. Peptide designed from whole sequences of 14-3-3 protein epsilon and its isoform 14-3-3 protein epsilon SV. The designed peptides contain 18AA from N terminal to C terminal and had 2AA overlapped in each peptide. A total of 31 peptides synthesized by Sigma. The synthesized peptide was prepared in DMSO and then further diluted in PBS for coating an ELISA plate. 30 μg/ml and 10 μg/ml of peptides in PBS were coated on ELISA plates, 50 μL/well. The plates incubated overnight at 4° C., were washed with 0.1% Tween20 PBS and blocked with 3% BSA in same buffer for 1 hour. […] After washing again, substrate ABTS was added to each well to monitor color change by reading at 405 nm in an ELISA reader (Bio-Tek Instrument Inc.). […]

[4] = target: T3, peptide comprising amino acids 145-162 of 14-3-3 epsilon SV (human); test: ELISA, peptide coated, 7D4 at 5 µg/ml
T3 construct: Synthetic 18-mer (Sigma), coated on the ELISA plate
T3 peptide: HPIRLGLALNFSVFYYEI
Experimental: as §1, §2

B1: anti-14-3-3 epsilon mouse monoclonal antibody 7D4 (antibody, V domains shown)
VH: QVQLQQSGAELMKPGASVKISCKATGYTFSSYWIEWVKQRPGHGLEWIGEILPGSGSTNYNEKFKGKATFTADTSSNTAYMQLSSLTSEDSAVYYCARSVWLRRDFAYWGQGTLVTVSA
VL: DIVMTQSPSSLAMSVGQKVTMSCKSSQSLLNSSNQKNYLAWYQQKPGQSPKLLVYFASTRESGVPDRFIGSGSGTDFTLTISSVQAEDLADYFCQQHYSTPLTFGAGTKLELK
notes: also called McAb 7D4; 7D4 mAb
- fold increase in binding on 3Gy×3 treated against sham 0Gy treated tumor cells [1]: 6 fold
- fold increase in the percentage of cells staining positive after 3Gy×3 [2]: 20 fold
- binding result [3]: binds
- binding result [4]: binds
